Data reported in publication PMC4741959, “Methionine adenosyltransferase α2 sumoylation positively regulate Bcl-2 expression in human colon and liver cancer cells”.

B1: Bcl-2 P2 promoter probe 3 (site 3) (dsDNA)
DNA 1: GGCAGCTTAATACATTCTTTTTAGCCG
DNA 2: CGGCTAAAAAGAATGTATTAAGCTGCC
B2: Bcl-2 P2 promoter probe 1 (site 1) (dsDNA)
DNA 1: TGCGGATTGACATTTCTGTGAA
DNA 2: TTCACAGAAATGTCAATCCGCA
B3: Bcl-2 P2 promoter probe 2 (site 2) (dsDNA)
DNA 1: GGTTTAATGTAACTTTCAATGG
DNA 2: CCATTGAAAGTTACATTAAACC

target: recombinant MATα2 (UniProt P31153 1-395); experiment: EMSA; 200 ng protein; LightShift Chemiluminescent EMSA Kit protocol (Thermo); buffer, salt, pH and binding temperature not stated; settings: label: biotin (extract EMSA), SYBR Green gel stain with recombinant protein, blunt
Sequence (P31153 whole entry): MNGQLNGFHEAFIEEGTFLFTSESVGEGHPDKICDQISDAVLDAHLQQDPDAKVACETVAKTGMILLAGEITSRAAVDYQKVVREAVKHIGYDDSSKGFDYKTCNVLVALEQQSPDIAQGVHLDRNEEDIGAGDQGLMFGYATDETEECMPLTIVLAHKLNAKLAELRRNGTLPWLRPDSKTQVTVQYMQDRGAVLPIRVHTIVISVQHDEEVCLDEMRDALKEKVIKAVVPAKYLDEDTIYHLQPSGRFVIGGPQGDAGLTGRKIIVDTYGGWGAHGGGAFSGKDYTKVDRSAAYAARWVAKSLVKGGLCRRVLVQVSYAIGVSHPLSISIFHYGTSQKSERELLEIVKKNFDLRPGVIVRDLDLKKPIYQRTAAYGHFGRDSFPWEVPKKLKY

Binding result, binds:
B1
B2
B3
